Data on one protein can be found in paper PMC5829272.

Data set [1] in a line: GFAP/lectin immunofluorescence in cortex. The settings on record: glycan lost; control: wild type mice.
Data set [2] can be described thus: RNA sequencing of primary astrocyte cultures. The settings on record: glycan lost; control: wild type astrocytes.
A further data set is described as follows: RNA sequencing of NSCs. The conditions noted are these: glycan lost; control: wild type NSCs.
The nature of data set [3]: transmission electron microscopy, retrosplenial granular cortex. The conditions noted are these: glycan lost; control: wild type mice.
A further data set can be described thus: cultured NSCs in vitro. The conditions noted are these: glycan lost; control: wild type NSCs.
The next data set in a line: cultured NSCs. The conditions noted are these: glycan lost; control: wild type NSCs.
A short description of data set [4]: intraperitoneal Evans blue, leakage area in brain sections. The conditions noted are these: glycan lost; control: wild type mice.
Data set [5] can be described thus: qPCR, Western blot, immunofluorescence. The conditions noted are these: glycan lost; control: wild type.
The nature of data set [6]: spontaneous differentiation after EGF/bFGF withdrawal. The conditions noted are these: glycan lost; control: wild type NSCs.
Data set [7] is described as follows: immunofluorescence, retrosplenial granular cortex. The settings on record: glycan lost; control: wild type mice.
Data set [8] in a line: DMP1 immunofluorescence intensity in brain. The conditions noted are these: glycan lost; control: wild type mice.

B1: Dentin matrix protein 1 (DMP1): S89G-DMP1 (protein)
parent chain: MKTVILLVFLWGLSCALPVARYHNTESESSEERTGDLAGSPPPPTNSESSEESQASPEGQANSDHTDSSESGEELGYDRGQYRPAGGLSKSTGTGADKEDDEDDSGDDTFGDEDNDLGPEEGQWGGPSKLDSDEDSTDTTQSSEDSTSQENSAQDTPSDSKDHDSEDEADSRPEAGDSTQDSESEEQRVGGGSEGESSHGDGSEFDDEGMQSDDPESTRSDRGHARMSSAGIRSEESKGDHEPTSTQDSDDSQSVEFSSRKSFRRSHVSEEDYRGELTDSNSRETQSDSTEDTASKEESRSESQEDTAESQSQEDSPEGQDPSSESSEEAGEPSQESSSESQEGVTSESRGDNPDNTSQAGDQEDSESSEEDSLNTFSSSESQSTEEQADSESNESLSLSEESQESAQDGDSSSQEGLQSQSASTESRSQESQSEQDSRSEEDSDSQDSSRSKEESNSTGSASSSEEDIRPKNMEADSRKLIVDAYHNKPIGDQDDNDCQDGY
B1: the “other: astrocyte end feet coverage of blood vessels” value in [1] was “decreases”. In addition, the “other: astrocyte transcriptome” value in data set [2] is on record as “changes”. Further, the “other: neural stem cell transcriptome” value in “RNA sequencing of NSCs” is “changes”. Also, in data set [3], the “other: astrocyte cell-cell adhesion” value is recorded as “decreases”. Besides, the “other: neural stem cell proliferation” value in “cultured NSCs in vitro” was “increases”. Besides, in “cultured NSCs”, the “other: neural stem cell apoptosis” value is on record as “no change”. For the same protein, the “other: blood-brain barrier integrity” value in data set [4] is reported as “decreases”. The “other: AQP4 expression in astrocytes and brain” value in [5] was “decreases”. Besides, the “other: neural stem cell differentiation” value in data set [6] was “no change”. For the same protein, in data set [7], the “other: laminin and ZO1 expression at vasculature” value is recorded as “decreases”. Moreover, the expression_or_secretion entry in [8] is “no change”.
